Data: article PMC2883556 (PLoS ONE, 2010)

B1: monoclonal antibody MCS6-27 (antibody, V domains shown)
VH: EVQLEQSGPGLVKPSQSLSLTCTVTGYSITNDYAWNWIRQFPGNKLEWMGYINYSGTTSYNPSLKSRISITRDTSKNQFFLQFNSVTTEDTATYYCARSPLAYWGQGTLVTVSA
VL: DIVLTQTPASLSVSVGETVTITCRASENIYSHLAWYQQKQGKSPQLLVYTATNLADGVPSRFSGRGSGTQYSLKINSLQSEDFGIYFCQHFWGTPWTFGGGTKLEIK
notes: also called mAb MCS6-27
B2: monoclonal antibody F29-40 (antibody, V domains shown)
VH: EVQLEESGPELVKPGTSVKISCKASGYSFTGYIINWVMQSQGKTPEWIGRINPNNGDTSYNQKFKGKATLTVDRSSSTAHMEVRSLTSEDSAVYYCARTGFGYWGQGTLVTVSA
VL: DIVITQTPASLAVSLGQRATISCRASESINYYGTNLLQWYQQKPGQPPKLLIYAASNVESGVPARFSGSGSGTDFSLNIHPVEEDDIAMYFCQQSRKVPFTFGSGTRLEIK
notes: also called mAb F29-40

How the values were obtained:
[1] = molecular target: T1, BoNT/B GST-fusion peptide fragment Hc (Clostridium botulinum strain Okra / …, UniProt B1INP5); test: ELISA; conditions: one partner purified
T1 construct: Cloned in pGS-21a; not shown: GST, N-terminal, kept

[2] = molecular target: T2, BoNT/B GST-fusion peptide fragment H5 (Clostridium botulinum Okra / Type B1, UniProt B1INP5); test: ELISA; conditions: one partner purified
T2 construct: Cloned in pGS-21a; not shown: GST, N-terminal, kept

[3] = molecular target: T3, BoNT/B GST-fusion peptide fragment L1 (Clostridium botulinum strain Okra / …, UniProt B1INP5); test: ELISA; conditions: one partner purified
T3 construct: not shown: GST, N-terminal, kept

[4] = molecular target: T4, BoNT/B GST-fusion peptide fragment H2 (Clostridium botulinum strain Okra / …, UniProt B1INP5); test: ELISA; conditions: one partner purified
T4 construct: not shown: GST, N-terminal, kept

[5] = molecular target: T5, Botulinum neurotoxin serotype D (Clostridium botulinum, UniProt P19321); test: ELISA; conditions: both partners purified
T5 construct: source: bought: Metabiologics

[6] = molecular target: T6, BoNT/B GST-fusion peptide fragment H1 (Clostridium botulinum strain Okra / …, UniProt B1INP5); test: ELISA; conditions: one partner purified
T6 construct: not shown: GST, N-terminal, kept

[7] = molecular target: T7, BoNT/B GST-fusion peptide fragment H3 (Clostridium botulinum strain Okra / …, UniProt B1INP5); test: ELISA; conditions: one partner purified
T7 construct: Cloned in pGS-21a; not shown: GST, N-terminal, kept

[8] = molecular target: T8, BoNT/B GST-fusion peptide fragment H4 (Clostridium botulinum strain Okra / …, UniProt B1INP5); test: ELISA; conditions: one partner purified
T8 construct: not shown: GST, N-terminal, kept

[9] = molecular target: T9, BoNT/B GST-fusion peptide fragment L2 (Clostridium botulinum strain Okra / …, UniProt B1INP5); test: ELISA; conditions: one partner purified
T9 construct: Cloned in pGS-21a; not shown: GST, N-terminal, kept

[10] = molecular target: T10, BoNT/B GST-fusion peptide fragment Lc (Clostridium botulinum Okra / Type B1, UniProt B1INP5); test: ELISA; conditions: one partner purified
T10 construct: not shown: GST, N-terminal, kept

[11] = molecular target: T11, Botulinum neurotoxin serotype C (Clostridium botulinum, UniProt P18640); test: ELISA; conditions: both partners purified
T11 construct: source: bought: Metabiologics

[12] = molecular target: T7, BoNT/B GST-fusion peptide fragment H3; test: ELISA; conditions: one partner purified; remark: listed apart in the source
[13] = molecular target: BoNT/B heavy chain (band of the reduced holotoxin) (Clostridium botulinum Okra / Type B1, UniProt B1INP5); test: far-Western, overlay or dot blot; conditions: both partners purified

Row | Binder | binding result [1] | binding result [2] | binding result [3] | binding result [4] | binding result [5] | binding result [6] | binding result [7] | binding result [8] | binding result [9] | binding result [10] | binding result [11] | binding result [12] | binding result [13]
1 | B1 | binds | binds | no binding | no binding | no binding (tested: 10 µg/mL) | no binding | no binding | no binding | no binding | no binding | no binding (tested: 10 µg/mL) | – | –
2 | B2 | binds | binds | no binding | no binding | no binding (tested: 10 µg/mL) | no binding | – | no binding | no binding | no binding | no binding (tested: 10 µg/mL) | binds | binds
